Biological target: the molecule itself
Assay: crystal structure; SaGpsB 1-75 at 5 mg/mL, no ligand; reservoir 1.0 M succinic acid, 0.1 M HEPES pH 7.5, 1 %w/v PEG 2000 MME; one dimer in the asymmetric unit; molecular replacement

B1: N-terminal domain (residues 1–75) of Staphylococcus aureus GpsB (domain or fragment, Staphylococcus aureus strain NCTC 8325, UniProt Q2FYI5 1-75, looked up)
chain: MSDVSLKLSAKDIYEKDFEKTMARGYRREEVDAFLDDIIADYQKMADMNNEVVKLSEENHKLKKELEELRLRVAT
notes: GpsB, Staphylococcus aureus strain NCTC 8325, Uniprot Q2FYI5, SAOUHSC_01462, residues 1-75 (N-terminal dimerization domain); Asymmetric homodimer in the crystal; also called SaGpsB; GpsB 1–75; source: E. coli BL21 (DE3), purified (Ni-NTA, SUMO protease cleavage, anion exchange, Superdex75 SEC); not shown: 10xHis, N-terminal, cleaved; SUMO, N-terminal, cleaved
stoichiometry N: 2

Source: publication PMC12880628, “X-Ray Crystal Structure of the N-Terminal Domain of Staphylococcus Aureus Cell-Cycle Protein GpsB” (Crystals, 2025)
